From the supplement of paper PMC10724198
± gives the standard deviation of the averaged measurements.
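Also: PSI is a weighted mean of sequencing reads over stability bins, variants kept only with over 10 reads, mCherry proximal and sfGFP distal, peptide attached via GGGS linker.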

The sequences below were run on Saccharomyces cerevisiae (assay: protein stability index of tFT-peptide fusion (C-terminal peptide) (PSI (0-1 scale)); higher = more stable (slower turnover)). Settings: genetic background: wild type; temperature: 30 C.
Description: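 Multiplexed protein stability (MPS) profiling in S. cerevisiae. Random 12-aa peptides (tFT-X12 library) are fused to the C-terminus of a sfGFP-mCherry tandem fluorescent timer, after mCherry and a GGGS linker. Cells are FACS-sorted into 8 mCherry/sfGFP bins and deep-sequenced. The protein stability index (PSI) is the read-weighted bin average, scaled from 0 (unstable) to 1 (stable). Only peptides with >10 reads are reported; cells were grown at 30 °C in SC-His with glucose.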
With PTSLPPLSRPPP the protein stability index was 0.723 ± 0.029.
Sequence PPHPPPPATPCP has a protein stability index of 0.682 ± 0.013.
AGSAGKWCWCGG gave a protein stability index of 0.711 ± 0.039.
With SRPRTTRKAASS the protein stability index was 0.674 ± 0.012.
PGLPLPPFPFFS showed a protein stability index of 0.762 ± 0.047.
GYGPSFALRPDS gave a protein stability index of 0.651 ± 0.026.
DRVFLVDMGVMW gave a protein stability index of 0.6632 ± 0.0014.
In the case of LSCLFYSYSVSS, the protein stability index is reported as 0.607 ± 0.068.
For CTVGWNLVFQFG, the protein stability index was 0.641 ± 0.08.
For LRDIEEIHRRGA, the protein stability index was 0.782 ± 0.013.
LTWVVNSGKGRC gave a protein stability index of 0.918 ± 0.087.
Work on FRMLSRMKEILD yielded a protein stability index of 0.634 ± 0.052.
Sequence NKKKKKKSTKRN has a protein stability index of 0.691 ± 0.044.
DNCIANLESGSL showed a protein stability index of 0.691 ± 0.008.
STLRFGVSLWLP gave a protein stability index of 0.712 ± 0.03.
PCGLRLAFRLSL was tested, and the protein stability index was 0.619 ± 0.038.
Work on NHQKFILAACGT yielded a protein stability index of 0.68 ± 0.029.
Sequence PRPPHLPPPVPS has a protein stability index of 0.7299 ± 0.0016.
Work on AKKKKKKIKTKH yielded a protein stability index of 0.8 ± 0.14.
For LLDVFFPRFFCH, the protein stability index was 0.611 ± 0.078.
In the case of GGDFYEGVKNGK, the protein stability index is reported as 0.714 ± 0.11.
In the case of SLLRSPSLPQSN, the protein stability index is reported as 0.634 ± 0.095.
Work on PQPLNTLRLTSS yielded a protein stability index of 0.671 ± 0.034.
VAAQRYAQRLFT showed a protein stability index of 0.652 ± 0.021.
Sequence HNMSDARRPSNI has a protein stability index of 0.702 ± 0.021.
In the case of TGKIRWIPAIRS, the protein stability index is reported as 0.64 ± 0.039.
For FCRFCEFIFIFL, the protein stability index was 0.499 ± 0.056.
LGLSCTIFPIGI was tested, and the protein stability index was 0.679 ± 0.018.
With LRVYCVIPLSGM the protein stability index was 0.526 ± 0.049.
For VPYLPPHLPLPP, the protein stability index was 0.71 ± 0.043.
VSYEGIVKDGSG gave a protein stability index of 0.647 ± 0.083.
With GGGAGERMRDGR the protein stability index was 0.67 ± 0.026.
In the case of PPSLFRFPPPPR, the protein stability index is reported as 0.709 ± 0.074.
With SKSNIAGIRKEL the protein stability index was 0.6774 ± 0.0063.
WFLVQQCGQMDR was tested, and the protein stability index was 0.711 ± 0.022.
Work on PLHPQPAATPRS yielded a protein stability index of 0.713 ± 0.023.
Sequence QTAAGLKPMSNR has a protein stability index of 0.777 ± 0.17.
WTAITDRRSRPD was tested, and the protein stability index was 0.616 ± 0.063.
DWSGTISVSSLR showed a protein stability index of 0.672 ± 0.1.
Sequence LVRDGQSHSVWN has a protein stability index of 0.655 ± 0.098.
SLLYIQDFVSGV was tested, and the protein stability index was 0.683 ± 0.019.
GKEQIEKKIEGI was tested, and the protein stability index was 0.589 ± 0.009.
In the case of PIAASAPPLCPR, the protein stability index is reported as 0.692 ± 0.014.
In the case of RWSPLLPPQVSL, the protein stability index is reported as 0.683 ± 0.019.
For VRRGGGGGGYGI, the protein stability index was 0.72 ± 0.031.
KGRFILKCKDIF showed a protein stability index of 0.637 ± 0.071.
For RGARRHSPTARW, the protein stability index was 0.717 ± 0.037.
Sequence VFHLFSAVSLRL has a protein stability index of 0.592 ± 0.0084.
SGFLLSPPRPSF was tested, and the protein stability index was 0.693 ± 0.042.
For LGACGWVDWWGL, the protein stability index was 0.774 ± 0.0083.
In the case of SRFKTVDCWKVW, the protein stability index is reported as 0.697 ± 0.097.
YFFECFKECREQ showed a protein stability index of 0.749 ± 0.015.
In the case of AFDPGLPPRRSD, the protein stability index is reported as 0.755 ± 0.011.
With FSVLSPHPLHPL the protein stability index was 0.753 ± 0.093.
For RYGLSLLQASRR, the protein stability index was 0.679 ± 0.081.
GEWCGGVAVFWR was tested, and the protein stability index was 0.693 ± 0.028.
Work on GSWLGGRTLAGI yielded a protein stability index of 0.707 ± 0.036.
TESGWMGRGFMR was tested, and the protein stability index was 0.656 ± 0.088.
MVYLSSQYSATT showed a protein stability index of 0.661 ± 0.039.
DVESGRVDLGEE was tested, and the protein stability index was 0.787 ± 0.15.
In the case of KRGGRGEKAEGK, the protein stability index is reported as 0.655 ± 0.024.
For IARLLFPPPGPI, the protein stability index was 0.643 ± 0.037.
MSGPHGGVADRD gave a protein stability index of 0.676 ± 0.054.
SLFGMACDGGLP showed a protein stability index of 0.6873 ± 0.0043.
WSAPHPVCSPPS was tested, and the protein stability index was 0.697 ± 0.0093.
With VGSLFGFGGRWV the protein stability index was 0.645 ± 0.0082.
For PSSSYLSCLPSW, the protein stability index was 0.703 ± 0.083.
Sequence PPLPPSPLPLPP has a protein stability index of 0.664 ± 0.023.
Work on DSKRIQSRLYYS yielded a protein stability index of 0.66 ± 0.027.
For VHRKGGRLEILG, the protein stability index was 0.64 ± 0.033.
PPPPPLPPLPCP was tested, and the protein stability index was 0.695 ± 0.03.
With VESDREPIFGCA the protein stability index was 0.65467 ± 0.00014.
Sequence GFYAWAISYLWQ has a protein stability index of 0.509 ± 0.0086.
With KAKKLRKKNENK the protein stability index was 0.671 ± 0.038.
For LPAPSPPSFPAP, the protein stability index was 0.743 ± 0.099.
In the case of DFGYSLRIIRSE, the protein stability index is reported as 0.746 ± 0.0099.
GEYRECVSWAGG showed a protein stability index of 0.721 ± 0.07.
Sequence RSGRGRRGVGWV has a protein stability index of 0.655 ± 0.038.
Sequence PVLRPPTPPRFR has a protein stability index of 0.661 ± 0.028.
In the case of LPRALLLHGHRP, the protein stability index is reported as 0.771 ± 0.067.
Work on RYLQAGDYTKVY yielded a protein stability index of 0.695 ± 0.1.
